Experiments:
Type in all cases: biochemical
[1] = Protease activity against fluorogenic substrate Z-AAN-MCA; details: enzyme ~5 μg mL^−1 total protein, Z-AAN-MCA 100 μM, 37° C., 60 minutes
Method: FIG. 15 is a graphical representation of the activity of recombinant O. affinis AEPs (˜5 μg mL^−1 total protein) and rhuLEG (1 μg mL^−1 total protein) over time against the fluorogenic substrate Z-AAN-MCA (100 μM). Activity is tracked at 1 minute intervals at 37° C. for 60 minutes using excitation and emission wavelengths of 360 and 460 nm respectively. A single representative experiment is shown. RFU, relative fluorescence units.
To assay activity of recombinant AEPs (rOaAEP1b, rOaAEP3, rOaAEP4 or rOaAEP5) against both internally-quenched and other fluorescent peptides, substrate and enzyme were diluted as appropriate in activity buffer (50 mM sodium acetate, 50 mM NaCl, 1 mM EDTA, 0.5 μM TCEP, pH 5). To assay activity of recombinant human legumain (rhuLEG; R&D systems) against the same substrates, the enzyme was first activated by incubation in 50 mM sodium acetate, 100 mM NaCl, pH 4 (4 μL buffer/1 μL enzyme) for 2 hours at 37° C. Substrates and activated rhuLEG were diluted in 50 mM acetate, 0.1% v/v triton X 100, 0.5 μM TCEP pH 5.5 or in 50 mM MES, 250 mM NaCl, pH 5 as required. Diluted enzyme and substrate were added to black, flat bottomed microtiter plates in a total assay volume of 100-200 μL. The change in fluorescence intensity over time was monitored on a SpectraMax M2 (Molecular Devices) using excitation/emission wavelengths of 320/420 nm (IQF peptides) or 360/460 nm (other fluorescent peptides).
AEP activity has traditionally been tracked by monitoring cleavage of the fluorescent substrate Z-AAN-MCA (where Z is carboxybenzyl; MCA is 7-amido-4-methylcoumarin) [Saska et al. (2007) supra; Rotari et al. (2001) Biol. Chem. 382:953-959]. Cleavage C-terminal to the Asn liberates the fluorophore which then fluoresces to report substrate cleavage. […] They are Ac-YVAD-CHO, which is routinely used to identify AEP activity (Hatsugai et al. (2004) Science 305(5685): 855-858) and Ac-STRN-CHO, which represents the P1-P4 residues of the C-terminal kB1 cleavage site. These traditional routes of identifying AEP activity will therefore likely be ineffective for identification of AEPs with cyclizing ability.

[2] = test system: target peptide-linker-ubiquitin-6xHis fusion protein; test: AEP-mediated processing of target peptides fused to ubiquitin; details: kalata B1-ubiquitin 260 μg mL^−1, AEP 19.7 μg mL^−1 total protein, 22 h, SDS-PAGE/anti-6xHis Western blot
[3] = Protease activity against IQF peptides; details: for P2′ substrate specificity (wt vs L31A IQF peptide): 50 μM IQF peptides, 37° C., initial velocity
Method: FIG. 3 is a graphical representation showing expression of active rOaAEP1b in E. coli. (A) Pooled rOaAEP1b-containing anion exchange fractions pre- and post-activation at low pH were diluted 1:14 and tested for activity against the wildtype internally quenched fluorescence (wtIQF) peptide (11 μM) [SEQ ID NO:21]. Baseline fluorescence from a no-substrate control has been subtracted and the relative fluorescence intensity (RFU) at t=90 minutes is reported. A single representative experiment of two technical replicates is shown. (B) Activated rOaAEP1b was captured by cation exchange and the final product analyzed by SDS-PAGE followed by (i) Instant blue staining and (ii) Western blotting with anti-AEP1b polyclonal rabbit serum.
FIGS. 17A and 17B are graphical representations of substrate specificity of plant and human AEPs for wt (SEQ ID NO:21) and L31A (SEQ ID NO:25) IQF peptide substrates. Initial velocity of recombinant O. affinis AEPs (˜10 μg mL^−1 total protein) (17A) and rhuLEG (1.1 μg mL^−1 total protein) (17B) against 50 μM IQF peptide substrates is shown. The assay was conducted at 37° C. The average of two technical replicates are shown and the error bars report the range.
To assay activity of recombinant AEPs (rOaAEP1b, rOaAEP3, rOaAEP4 or rOaAEP5) against both internally-quenched and other fluorescent peptides, substrate and enzyme were diluted as appropriate in activity buffer (50 mM sodium acetate, 50 mM NaCl, 1 mM EDTA, 0.5 μM TCEP, pH 5). […] The change in fluorescence intensity over time was monitored on a SpectraMax M2 (Molecular Devices) using excitation/emission wavelengths of 320/420 nm (IQF peptides) or 360/460 nm (other fluorescent peptides). […]
IQF peptides that incorporate the P1-P4 as well as the P1′-P4′ residues are, however, effectively targeted by recombinant O. affinis AEPs. These peptides contain a fluorescence donor/quencher pair, with fluorescence observed upon the spatial separation of this pair following enzymatic cleavage. […]

Molecule	activity against Z-AAN-MCA [1]	proportion of fusion protein enzymatically processed (loss of precursor) [2]	P2′ substrate specificity (wt vs L31A IQF peptide) [3]	activity against IQF peptide following low pH activation ([3]; wt IQF peptide 11 μM, fractions diluted 1:14, 90 minutes, pre- vs post-activation)
rOaAEP1b: recombinant Oldenlandia affinis asparaginyl endopeptidase OaAEP1b expressed in E. coli, activated (protein, Oldenlandia affinis OaAEP1b) MVRYLAGAVLLLVVLSVAAAVSGARDGDYLHLPSEVSRFFRPQETNDDHGEDSVGTRWAVLIAGSKGYANYRHQAGVCHAYQILKRGGLKDENIVVFMYDDIAYNESNPRPGVIINSPHGSDVYAGVPKDYTGEEVNAKNFLAAILGNKSAITGGSGKVVDSGPNDHIFIYYTDHGAAGVIGMPSKPYLYADELNDALKKKHASGTYKSLVFYLEACESGSMFEGILPEDLNIYALTSTNTTESSWCYYCPAQENPPPPEYNVCLGDLFSVAWLEDSDVQNSWYETLNQQYHHVDKRISHASHATQYGNLKLGEEGLFVYMGSNPANDNYTSLDGNALTPSSIVVNQRDADLLHLWEKFRKAPEGSARKEVAQTQIFKAMSHRVHIDSSIKLIGKLLFGIEKCTEILNAVRPAGQPLVDDWACLRSLVGTFETHCGSLSEYGMRHTRTIANICNAGISEEQMAEAASQACASIP	nor rOaAEP1b, rOaAEP3, rOaAEP4 or rOaAEP5 (FIG. 15) had detectable activity	the bulk of the precursor was being enzymatically processed	preference for a bulky hydrophobic residue such as Leu at the P2′ position	dramatically increased
rhuLEG: recombinant human legumain (R&D systems), an AEP that preferentially functions as a hydrolase (protein, UniProt Q99538 18-323, looked up) Legumain: VPIDDPEDGGKHWVVIVAGSNGWYNYRHQADACHAYQIIHRNGIPDEQIVVMMYDDIAYSEDNPTPGIVINRPNGTDVYQGVPKDYTGEDVTPQNFLAVLRGDAEAVKGIGSGKVLKSGPQDHVFIYFTDHGSTGILVFPNEDLHVKDLNETIHYMYKHKMYRKMVFYIEACESGSMMNHLPDNINVYATTAANPRESSYACYYDEKRSTYLGDWYSVNWMEDSDVEDLTKETLHKQYHLVKSHTNTSHVMQYGNKTISTMKVMQFQGMKRKASSPVPLPPVTHLDLTPSPDVPLTIMKRKLMNTN			not shared	
